Assay [1] addresses GST-TOP3β (1–612), wild type (human) (UniProt O95985). As to the kind of experiment: pull-down; GST-TOP3β (1–612) on Glutathione Sepharose FF, 0.5 μM TDRD3 or RMI1 protein (Fig. 3c, 4d, 4e); 20 mM Tris-Cl pH 7.4, 200 mM NaCl, 1 mM MgCl2, 5 mM β-mercaptoethanol, 0.1% Triton X-100, 4 °C, 2 hrs; Coomassie, densitometry.
Assay [2] shares this target. Put plainly: pull-down; GST-TOP3β (1–612) on Glutathione Sepharose FF, 0.2 μM TDRD3 protein (Fig. 3f left); same buffer, 4 °C, 2 hrs; Coomassie, densitometry.
Assay [3] has the same target. Put plainly: pull-down; GST-TOP3β (1–612) on Glutathione Sepharose FF, 1.0 μM TDRD3 or RMI1 protein (Fig. 3f right, 4b); same buffer, 4 °C, 2 hrs; Coomassie, densitometry.
The target of assay [4] is T1, TOP3β TOPO domain (1–612) (human, UniProt O95985 1-612).
T1 construct: human Topoisomerase IIIβ, topoisomerase (TOPO) domain, residues 1–612; also called TOP3β (1–612); catalytic domain of TOP3β; source: baculovirus-infected Sf9 cells, purified (Glutathione Sepharose, GST removed by HRV 3C protease, SEC); not shown: GST, N-terminal, cleaved
T1 sequence (looked up): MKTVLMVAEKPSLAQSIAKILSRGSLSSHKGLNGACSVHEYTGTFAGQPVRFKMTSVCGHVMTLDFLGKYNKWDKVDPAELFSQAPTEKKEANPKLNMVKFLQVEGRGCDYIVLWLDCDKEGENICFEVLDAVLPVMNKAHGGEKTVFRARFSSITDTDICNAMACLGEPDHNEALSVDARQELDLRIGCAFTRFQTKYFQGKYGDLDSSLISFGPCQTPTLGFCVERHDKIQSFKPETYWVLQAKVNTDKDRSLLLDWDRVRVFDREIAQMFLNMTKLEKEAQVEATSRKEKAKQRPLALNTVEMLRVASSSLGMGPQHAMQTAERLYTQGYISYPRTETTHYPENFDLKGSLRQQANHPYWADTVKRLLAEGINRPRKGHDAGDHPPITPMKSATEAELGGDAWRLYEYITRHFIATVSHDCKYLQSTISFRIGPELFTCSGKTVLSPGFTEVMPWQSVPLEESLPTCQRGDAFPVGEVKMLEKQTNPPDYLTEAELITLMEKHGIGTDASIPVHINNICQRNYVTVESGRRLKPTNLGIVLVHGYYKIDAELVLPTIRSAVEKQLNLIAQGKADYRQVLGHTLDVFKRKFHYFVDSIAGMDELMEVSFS
As to the kind of experiment: crystal structure; TOP3β (1–612)–TDRD3 (1–161) complex, 3.6 Å; sitting drop, 20 °C, 50 mM Na-cacodylate pH 6.2, 10 mM MgSO4, 1.7 M Li2SO4. As to conditions: both partners purified.

Assay [5] addresses T1, TOP3β TOPO domain (1–612). Put plainly: SEC; binding analysis using size-exclusion column chromatography (Supplementary Fig. 3a). As to conditions: both partners purified. Background: In gel filtration, larger molecules generally elute earlier.

This note sets out measurements from PMC5296760, “Structural basis of the interaction between Topoisomerase IIIβ and the TDRD3 auxiliary factor” (Scientific Reports, 2017).

“And” between values parts separate entries of the source, which are not always exact repeats. Equal values may be shown once. Where only a bound is given, the exact number is not on record here.

For “TDRD3 DUF–OB V109M/F111Y/F139V (from UniProt Q9H7E2-3 1-161) (domain or fragment)”, in assay [1], the percent of wild-type binding is above 70%.

As for “TDRD3 DUF–OB V79S (from UniProt Q9H7E2-3 1-161) (domain or fragment)”, the percent of wild-type binding in assay [2] is above 60%.

In turn, “TDRD3 DUF–OB A80S/A81Q/A90K/A91P/P92S (from UniProt Q9H7E2-3 1-161) (domain or fragment)” showed a percent of wild-type binding in assay [3] of 80%.

On to “TDRD3 DUF–OB F111Y (from UniProt Q9H7E2-3 1-161) (domain or fragment)”, for which the percent of wild-type binding in assay [1] is above 70%.

In the case of “TDRD3 DUF–OB V^79-SSGG-P^92 (from UniProt Q9H7E2-3 1-161) (domain or fragment)”, the percent of wild-type binding in assay [3] came out at 40%.

For the molecule “TDRD3 DUF–OB P^82-GSGSGGS-A^90 (from UniProt Q9H7E2-3 1-161) (domain or fragment)”, the percent of wild-type binding in assay [2] was found to be 60%.

As for “TDRD3 DUF–OB P82S (from UniProt Q9H7E2-3 1-161) (domain or fragment)”, the percent of wild-type binding in assay [2] was above 60%.

Consider “TDRD3 DUF–OB R96M/F139V (from UniProt Q9H7E2-3 1-161) (domain or fragment)”, for which, in assay [1], the percent of wild-type binding was above 70%.

For “TDRD3 DUF–OB R96M (from UniProt Q9H7E2-3 1-161) (domain or fragment)”, in assay [1], the percent of wild-type binding is above 70%.

Molecule “TDRD3 DUF–OB P92S (from UniProt Q9H7E2-3 1-161) (domain or fragment)” yielded a percent of wild-type binding in assay [2] of 50%.

For the molecule “TDRD3 DUF–OB R96M/F111Y (from UniProt Q9H7E2-3 1-161) (domain or fragment)”, in assay [1], the percent of wild-type binding was above 70%.

Turning to “TDRD3 DUF–OB V79S/P82S (from UniProt Q9H7E2-3 1-161) (domain or fragment)”, in assay [2], the percent of wild-type binding stood at 30%.

“TDRD3 DUF–OB V109M (from UniProt Q9H7E2-3 1-161) (domain or fragment)” came in with a percent of wild-type binding in assay [1] above 70%.

“TDRD3-RMI1loop (from UniProt Q9H7E2-3 1-78; Q9H9A7 95-132; Q9H7E2-3 93-161) (domain or fragment)” displayed a percent of wild-type binding in assay [1] of 70%.

“TDRD3 DUF–OB R96M/V109M (from UniProt Q9H7E2-3 1-161) (domain or fragment)” returned a percent of wild-type binding in assay [1] above 70%.

On to “TDRD3 DUF–OB A80S/A81S (from UniProt Q9H7E2-3 1-161) (domain or fragment)”, for which the percent of wild-type binding in assay [2] was above 60%.

“TDRD3 DUF–OB F139V (from UniProt Q9H7E2-3 1-161) (domain or fragment)” gave a percent of wild-type binding in assay [1] above 70%.

Consider “TDRD3 DUF–OB R96M/V109M/F139V (from UniProt Q9H7E2-3 1-161) (domain or fragment)”, for which the percent of wild-type binding in assay [1] is 35% and 30%.

B1: TDRD3 (1–161) of the TOP3β–TDRD3 complex (domain or fragment, human, UniProt Q9H7E2-3 1-161, looked up)
chain: MAQVAGAALSQAGWYLSDEGIEACTSSPDKVNVNDIILIALNTDLRTIGKKFLPSDINSGKVEKLEGPCVLQIQKIRNVAAPKDNEESQAAPRMLRLQMTDGHISCTAVEFSYMSKISLNTPPGTKVKLSGIVDIKNGFLLLNDSNTTVLGGEVEHLIEKW
notes: human TDRD3 DUF1767 and OB-fold domains; made as 1–171, cut by chymotrypsin at Trp161, deposited as 1–161; also called TDRD3 DUF–OB; source: E. coli Rosetta (DE3), purified; TDRD3 (1–171) mixed with TOP3β (1–612), trimmed with chymotrypsin, SEC; not shown: GST, N-terminal, cleaved
As for B1, in assay [4], the binding result is listed as “binds”.

B2: TDRD3 OB-fold domain (48–171) (domain or fragment, human, UniProt Q9H7E2-3 48-171, looked up)
chain: IGKKFLPSDINSGKVEKLEGPCVLQIQKIRNVAAPKDNEESQAAPRMLRLQMTDGHISCTAVEFSYMSKISLNTPPGTKVKLSGIVDIKNGFLLLNDSNTTVLGGEVEHLIEKWELQRSLSKHN
notes: human TDRD3 OB-fold domain, residues 48–171; purification is described only for DUF–OB; also called TDRD3 OB-fold domain alone; source: E. coli Rosetta (DE3) (as told for DUF–OB)
Consider B2, for which the binding result in assay [5] was “binds”.
